The supplement of paper PMC9112550, “Optimization of the antimicrobial peptide Bac7 by deep mutational scanning” (BMC Biology, 2022)

system: Escherichia coli TOP10; assay: shrunken log2 fold change of peptide-encoding DNA abundance (4.5 h post-induction vs induction); higher = less antimicrobial activity (less host growth inhibition); details: time post-induction: 4.5 h; library: site-saturation at positions 5, 18, 19, 20
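Note: peptides expressed intracellularly from a pBAD plasmid library in pooled LB shake-flask culture, induced with 0.3% L-arabinose, DNA abundance read by NGS, three biological replicates, DESeq2 with apeglm shrinkage.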

Row | Sequence | shrunken log2 fold change
1 | RRIRERPPRLPRPRPRPVNLPRP | -0.441
2 | RRIRKRPPRLPRPRPRPEPIPRP | -0.0204
3 | RRIRSRPPRLPRPRPRPATYPRP | -0.429
4 | RRIRNRPPRLPRPRPRPHRWPRP | 0.0666
5 | RRIRYRPPRLPRPRPRPPCKPRP | 0.0994
6 | RRIRARPPRLPRPRPRPVEAPRP | 0.365
7 | RRIRMRPPRLPRPRPRPMFNPRP | -0.343
8 | RRIRSRPPRLPRPRPRPRFNPRP | -0.153
9 | RRIRTRPPRLPRPRPRPRRFPRP | -0.115
10 | RRIRARPPRLPRPRPRPTMLPRP | 0.15
11 | RRIRHRPPRLPRPRPRPEAHPRP | -0.00101
12 | RRIRWRPPRLPRPRPRPTTHPRP | 0.163
13 | RRIRVRPPRLPRPRPRPHKRPRP | 0.06
14 | RRIRPRPPRLPRPRPRPIALPRP | -0.0697
15 | RRIRGRPPRLPRPRPRPEFQPRP | 0.226
16 | RRIRVRPPRLPRPRPRPICAPRP | -0.167
17 | RRIRFRPPRLPRPRPRPQTQPRP | 0.0508
18 | RRIRQRPPRLPRPRPRPNEQPRP | 0.0394
19 | RRIRNRPPRLPRPRPRPQVEPRP | 0.0172
20 | RRIRNRPPRLPRPRPRPLTQPRP | -0.328
21 | RRIRWRPPRLPRPRPRPLPAPRP | 1.25
22 | RRIRWRPPRLPRPRPRPCTQPRP | -0.177
23 | RRIRIRPPRLPRPRPRPDDSPRP | -0.267
24 | RRIRRRPPRLPRPRPRPFHNPRP | 0.00548
25 | RRIRVRPPRLPRPRPRPGWRPRP | 0.49

Row | Sequence | shrunken log2 fold change
26 | RRIRQRPPRLPRPRPRPALIPRP | 0.144
27 | RRIRCRPPRLPRPRPRPPCCPRP | 0.021
28 | RRIRCRPPRLPRPRPRPGSFPRP | -0.22
29 | RRIRHRPPRLPRPRPRPTKMPRP | 0.0724
30 | RRIRERPPRLPRPRPRPDFQPRP | -0.37
31 | RRIRERPPRLPRPRPRPSVGPRP | 0.0861
32 | RRIRLRPPRLPRPRPRPFYPPRP | -0.504
33 | RRIRNRPPRLPRPRPRPALKPRP | 0.108
34 | RRIRHRPPRLPRPRPRPLADPRP | 0.26
35 | RRIRDRPPRLPRPRPRPDPPPRP | 0.627
36 | RRIRDRPPRLPRPRPRPPKNPRP | 0.344
37 | RRIRRRPPRLPRPRPRPCSVPRP | 0.178
38 | RRIRERPPRLPRPRPRPEPMPRP | -0.0016
39 | RRIRFRPPRLPRPRPRPRLDPRP | 0.0416
40 | RRIRERPPRLPRPRPRPNWIPRP | -0.324
41 | RRIRPRPPRLPRPRPRPIGGPRP | 0.00483
42 | RRIRDRPPRLPRPRPRPNWMPRP | -0.0161
43 | RRIRYRPPRLPRPRPRPSGRPRP | -0.261
44 | RRIRRRPPRLPRPRPRPGFGPRP | 0.497
45 | RRIRFRPPRLPRPRPRPWNQPRP | 0.0676
46 | RRIRCRPPRLPRPRPRPYSNPRP | -0.655
47 | RRIRPRPPRLPRPRPRPLQGPRP | 0.13
48 | RRIRSRPPRLPRPRPRPMRIPRP | 0.0732
49 | RRIRPRPPRLPRPRPRPYKSPRP | -0.0798
50 | RRIRERPPRLPRPRPRPWSRPRP | 0.0483

Row | Sequence | shrunken log2 fold change
51 | RRIRCRPPRLPRPRPRPRAFPRP | -0.0361
52 | RRIRCRPPRLPRPRPRPVESPRP | -0.0217
53 | RRIRNRPPRLPRPRPRPFWSPRP | -0.146
54 | RRIRHRPPRLPRPRPRPEGTPRP | -0.0282
55 | RRIRCRPPRLPRPRPRPLLQPRP | 0.167
56 | RRIRARPPRLPRPRPRPGHEPRP | 0.054
57 | RRIRGRPPRLPRPRPRPISQPRP | 0.135
58 | RRIRTRPPRLPRPRPRPMWHPRP | -0.391
59 | RRIRCRPPRLPRPRPRPMNNPRP | -0.537
60 | RRIRPRPPRLPRPRPRPNMFPRP | -0.254
61 | RRIRWRPPRLPRPRPRPVKMPRP | 0.125
62 | RRIRFRPPRLPRPRPRPWNHPRP | -0.141
63 | RRIRARPPRLPRPRPRPEDQPRP | 0.0203
64 | RRIRIRPPRLPRPRPRPGRNPRP | 0.0581
65 | RRIRGRPPRLPRPRPRPFLWPRP | 0.996
66 | RRIRYRPPRLPRPRPRPNFGPRP | -0.126
67 | RRIRIRPPRLPRPRPRPMPIPRP | -0.0218
68 | RRIRTRPPRLPRPRPRPEMMPRP | -0.0411
69 | RRIRTRPPRLPRPRPRPYEFPRP | -0.202
70 | RRIRTRPPRLPRPRPRPMPMPRP | 0.467
71 | RRIRHRPPRLPRPRPRPGCQPRP | 0.0291
72 | RRIRMRPPRLPRPRPRPFMMPRP | -0.113
73 | RRIRMRPPRLPRPRPRPNLDPRP | 0.00884
74 | RRIRARPPRLPRPRPRPSAHPRP | 0.101
75 | RRIRIRPPRLPRPRPRPHVCPRP | 0.41

Row | Sequence | shrunken log2 fold change
76 | RRIRQRPPRLPRPRPRPTSDPRP | -0.358
77 | RRIRNRPPRLPRPRPRPREKPRP | 0.377
78 | RRIRIRPPRLPRPRPRPCNIPRP | -0.106
79 | RRIRHRPPRLPRPRPRPLHDPRP | -0.277
80 | RRIRVRPPRLPRPRPRPMRYPRP | 0.453
81 | RRIRIRPPRLPRPRPRPRGTPRP | 0.277
82 | RRIRPRPPRLPRPRPRPNLWPRP | -0.0151
83 | RRIRQRPPRLPRPRPRPLPRPRP | 0.724
84 | RRIRARPPRLPRPRPRPHYKPRP | -0.424
85 | RRIRPRPPRLPRPRPRPPFFPRP | 0.415
86 | RRIRCRPPRLPRPRPRPIRVPRP | 0.161
87 | RRIRMRPPRLPRPRPRPDRRPRP | -0.0127
88 | RRIRQRPPRLPRPRPRPPSVPRP | 0.0958
89 | RRIRDRPPRLPRPRPRPKPPPRP | 0.471
90 | RRIRDRPPRLPRPRPRPEAIPRP | 0.0379
91 | RRIRSRPPRLPRPRPRPKRNPRP | 0.228
92 | RRIRFRPPRLPRPRPRPPVNPRP | 0.147
93 | RRIRHRPPRLPRPRPRPRSTPRP | -0.00721
94 | RRIRGRPPRLPRPRPRPQQEPRP | 0.0132
95 | RRIRIRPPRLPRPRPRPALCPRP | 0.0482
96 | RRIRKRPPRLPRPRPRPASAPRP | 0.59
97 | RRIRYRPPRLPRPRPRPFHSPRP | -0.0599
98 | RRIRKRPPRLPRPRPRPFIAPRP | -0.0583
99 | RRIRRRPPRLPRPRPRPLSQPRP | 0.000673
100 | RRIRTRPPRLPRPRPRPRPPPRP | 0.745

Row | Sequence | shrunken log2 fold change
101 | RRIRERPPRLPRPRPRPDTPPRP | -0.562
102 | RRIRPRPPRLPRPRPRPCTHPRP | -0.0646
103 | RRIRERPPRLPRPRPRPMWFPRP | -0.159
104 | RRIRNRPPRLPRPRPRPHNLPRP | -0.272
105 | RRIRIRPPRLPRPRPRPAMDPRP | -0.218
106 | RRIRHRPPRLPRPRPRPELKPRP | 0.127
107 | RRIRRRPPRLPRPRPRPKSMPRP | 0.0108
108 | RRIRYRPPRLPRPRPRPYRLPRP | -0.173
109 | RRIRFRPPRLPRPRPRPMRCPRP | 0.0196
110 | RRIRTRPPRLPRPRPRPDCMPRP | -0.137
111 | RRIRQRPPRLPRPRPRPHTQPRP | 0.0338
112 | RRIRTRPPRLPRPRPRPCSDPRP | -0.104
113 | RRIRARPPRLPRPRPRPDKFPRP | -0.19
114 | RRIRVRPPRLPRPRPRPGPNPRP | 0.0445
115 | RRIRMRPPRLPRPRPRPHNVPRP | 0.0515
116 | RRIRVRPPRLPRPRPRPVADPRP | 0.181
117 | RRIRMRPPRLPRPRPRPCMVPRP | -0.417
118 | RRIRWRPPRLPRPRPRPTVFPRP | 0.255
119 | RRIRFRPPRLPRPRPRPGFYPRP | -0.28
120 | RRIRPRPPRLPRPRPRPNPAPRP | 0.234
121 | RRIRYRPPRLPRPRPRPVAEPRP | -0.0801
122 | RRIRTRPPRLPRPRPRPYCAPRP | -0.732
123 | RRIRERPPRLPRPRPRPEKNPRP | -0.126
124 | RRIRHRPPRLPRPRPRPKTYPRP | -1.51
125 | RRIRHRPPRLPRPRPRPCWAPRP | 0.00936
